Test results published in PMC11903878, “Structural mechanisms for centrosomal recruitment and organization of the microtubule nucleator γ-TuRC” (Nature Communications, 2025).

Legend:
[1] = molecular target: X. laevis 2×FLAG-TEV-NEDD1-3C-GCP3(1–240)/ALFA-MZT1 complex (X. laevis) (UniProt O73787); assay: mass photometry; Refeyn TwoMP; purified NEDD1-N-GCP3/MZT1 diluted to a final concentration below 40 nM; tetramer of the fusion/MZT1 protomer
[2] = molecular target: T1, human Augmin TII N-clamp with HAUS8∆[1-138] (human, UniProt Q9NVX0 1-118; Q7Z4H7 1-269; Q99871 1-299; Q9BT25 139-248); assay: pull-down; 25 μg recombinant EGFP-tagged Augmin TII N-clamp∆H8N added to lysate of HEK293 cells overexpressing POC5-HA or POC5^mut-HA, captured on GFP binder beads, 1 hr 4 °C; 50 mM Tris pH 7.5, 150 mM NaCl; HA blot; settings: one partner purified
T1 construct: HAUS2, human, codons 1 to 118; HAUS6, human, codons 1 to 269; HAUS7, human, codons 1 to 299, followed by a TEV-EGFP-8xHis cleavable tag; HAUS8, human, codons 1 to 248 with the N-terminal truncation HAUS8∆[1-138]; The range 139-248 of HAUS8 is worked out from the printed limits 1 to 248 and the deletion 1-138; also called Augmin N-clamp; Augmin TII N-clamp∆H8N; source: E. coli BL21 CodonPlus-RIL, …
T1 sequence (Q9NVX0 1-118, chain 1 of 4): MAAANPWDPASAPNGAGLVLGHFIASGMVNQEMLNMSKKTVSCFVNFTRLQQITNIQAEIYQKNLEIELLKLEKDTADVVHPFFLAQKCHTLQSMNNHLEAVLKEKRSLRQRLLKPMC
T1 sequence (Q7Z4H7 1-269, chain 2 of 4): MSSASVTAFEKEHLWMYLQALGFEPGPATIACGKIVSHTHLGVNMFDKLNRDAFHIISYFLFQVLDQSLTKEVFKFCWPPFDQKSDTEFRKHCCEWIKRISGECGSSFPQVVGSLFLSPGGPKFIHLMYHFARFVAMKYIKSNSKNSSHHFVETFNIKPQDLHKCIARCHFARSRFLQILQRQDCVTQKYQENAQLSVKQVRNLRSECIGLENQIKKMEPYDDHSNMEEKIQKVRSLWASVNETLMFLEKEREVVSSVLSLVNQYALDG
T1 sequence (Q99871 1-299, chain 3 of 4): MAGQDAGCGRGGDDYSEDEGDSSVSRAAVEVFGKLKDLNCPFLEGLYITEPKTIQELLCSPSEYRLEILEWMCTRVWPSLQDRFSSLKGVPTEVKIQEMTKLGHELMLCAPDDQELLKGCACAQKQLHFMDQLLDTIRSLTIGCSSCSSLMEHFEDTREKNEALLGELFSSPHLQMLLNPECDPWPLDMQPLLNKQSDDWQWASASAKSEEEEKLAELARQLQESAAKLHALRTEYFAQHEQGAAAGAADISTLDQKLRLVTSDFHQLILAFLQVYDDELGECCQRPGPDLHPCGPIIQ
T1 sequence (Q9BT25 139-248, chain 4 of 4): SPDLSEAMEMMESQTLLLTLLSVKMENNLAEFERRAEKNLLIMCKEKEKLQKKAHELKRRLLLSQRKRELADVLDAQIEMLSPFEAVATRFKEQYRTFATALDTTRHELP

[3] = molecular target: the molecule itself; assay: cryo-EM structure; single particle analysis of the native γ-TuRC affinity-purified from X. laevis egg extract; particles with stoichiometric NEDD1/N-GCP3/MZT1 grapnel; AlphaFold2 models flexibly fitted (MDFF) into the density

With “X. laevis 2×FLAG-TEV-NEDD1-3C-GCP3(1–240)/ALFA-MZT1 complex (from UniProt O73787 1-240; Q5U4M5 1-72)” the stoichiometry N [1] was 4.

B1: POC5^mut-HA (S224E, R227A, K228A, V231A, S234K, L235A) (natural protein, human, UniProt Q8NA72 1-575, looked up)
chain: MSSDEEKYSLPVVQNDSSRGSSVSSNLQEEYEELLHYAIVTPNIEPCASQSSHPKGELVPDVRISTIHDILHSQGNNSEVRETAIEVGKGCDFHISSHSKTDESSPVLSPRKPSHPVMDFFSSHLLADSSSPATNSSHTDAHEILVSDFLVSDENLQKMENVLDLWSSGLKTNIISELSKWRLNFIDWHRMEMRKEKEKHAAHLKQLCNQINELKELQKTFEIEIGAADEAISKASHAIGKQKEKIELMRTFFHWRIGHVRARQDVYEGKLADQYYQRTLLKKVWKVWRSVVQKQWKDVVERACQARAEEVCIQISNDYEAKVAMLSGALENAKAEIQRMQHEKEHFEDSMKKAFMRGVCALNLEAMTIFQNRNDAGIDSTNNKKEEYGPGVQGKEHSAHLDPSAPPMPLPVTSPLLPSPPAAVGGASATAVPSAASMTSTRAASASSVHVPVSALGAGSAATAASEEMYVPRVVTSAQQKAGRTITARITGRCDFASKNRISSSLAIMGVSPPMSSVVVEKHHPVTVQTIPQATAAKYPRTIHPESSTSASRSLGTRSAHTQSLTSVHSIKVVD
notes: POC5, human, with six point mutations in the predicted POC5-Augmin interface; source: HEK293 (Tet-On 3G), overexpressed, in lysate; not shown: HA, C-terminal, kept
B1 was tested, and the “fold reduction against wild-type” value [2] was 3 fold.

B2: NEDD1 (neural precursor cell expressed, developmentally down-regulated 1), X. laevis, endogenous (natural protein, X. laevis (endogenous in egg extract), UniProt A0A8J0Q0Y8 1-671, looked up)
chain: MESRGGGGRVRLPGTTMQDNIRFVSAGDDVKIWDYSSMTTVEQFNPHSASHPVSSLCWSSNNHFLVTASGSGDKIVVSSCKSKPVPLLELAEGKKQTCVNLNSSSQYVVSGGLDNTVNIWDLKSKRLHRSLKDHKDEVTCVTFNANDCYVASGSMSGEIILHNVTTNLSSTPFGHGSSQPIRHLKYSYVKKSLLGTVSDSGSVTLWDANSQNPYHVFESAHKAPASGICFSPVNDLLLVTVGLDKRIICYDVSSKILLQTVVAESPLTAVDFMPDGATLAVGSSRGKIYLYDLRMLSSPVKTVSAHKTSVQCIQFQHSNIYKSSKGPSSKSSILSTAVNKKPSTKTAAGGTQSANITKDLPPSAISSLPQPVMPVDSKVLRVNDDKSGFPRSTSLDIIPSKETDFAKTSDYKSIDSFGRSSLGDIFSPVRDDASHFRGAEDLSCKGNDLDYLPQFSTIPSSRRNPVGANTQGIHGSPLHLIIESPIKEEDESQDSELKTRKPQLLKQDFRESSSKPASVDQNNLNNSPINSVTRTPEAIEKTGHQILSQLKSDVPAHGTKIASPKVAATMSTQLASSLSEKIADTLASDRTGAPLTAIQINFIKNMIEETLDDFREACHRDIVNLQVEMIKQFHIQSSEIQMLLERYSLNESLVSEIEKLREENKRLRANF
notes: NEDD1, X. laevis, endogenous; NM_001094388.1 is printed for the cDNA of the recombinant constructs; also called NEDD1^C (its C-terminus); source: endogenous, X. laevis egg extract; co-purified with the γ-TuRC
With B2 the “stoichiometry N” value [3] was 4.
